# From the nanobody polyreactivity screen of Harvey et al. (2022)
# Assay: yeast display, Sf9 membrane polyspecificity reagent, FACS + sequencing; frameworks hold sequencing errors
# Method in brief: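 Using colony PCR, genes from sorted yeast display clones were amplified, then sequenced on MiSeq at 2 × 250 and filtered by CDR length. The clones had been stained with 10% biotinylated, detergent-solubilized Sf9 membrane reagent for 1 hour at 4 °C and sorted by FACS into low and high (top ~1%) gates on anti-HA and streptavidin fluorescence. Polyreactivity labels come from the gate of origin.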
row,Sequence,polyreactivity (PSR sort gate)
1,QVQLVESGGGLVQAGGSLRLSCAASGIILRYYAMGWYRQAPGKERELVASITSSGGRTYYADSVKGRFRISRDNAKNTVYLQMNSLKPEDTAVDYCAAKWAVVSGYGYWGQGTQVTVSS,high polyreactivity
2,QVQLVESGGGLVQAGGSLRLSCAASGIILSPYTMGWYRQAPGKERELVAGISRSGGTTYYADSVKGRFTISRDNAKNTVYLQMNSLKPEDTAVYYCAARKPGWGHEWWVEHYYYWGQGTQVTVSS,low polyreactivity
3,QVQLVESGGGLVQAGGSLRLSCAASGIILTQNAMGWYRQAPGKERELVAAITESGARTYYADSVKGRFTISRDNAKNTVYLQMNSLKPEDTAVYYCNAYRYYRGQVYPFYYWGQGTQVTVSS,low polyreactivity
4,QVQLVESGGGLVQAGGSLRLSCAASGIILYWNAMGWYRQAPGKERELVARITSGGSTNYADSVKGRFTISRDNAKNTVYLQMNSLKPEDTAVYYCAADYKAYGRSYDYWGQGTQVTVSS,low polyreactivity
5,QVQLVESGGGLVQAGGSLRLSCAASGIILYYYVMVWYRQEPGKEREFVAAINRSGTSTYYADSVKGRFTISRDNAKNTVYLQMNSLKPADTAVYYCAAERYWSGGVFDYDYWGQGTQVTVSS,high polyreactivity
6,QVQLVESGGGLVQAGGSLRLSCAASGIIMRKYAMGWYRQAPGKERELVAAITTRGSRTYYADSVKGRFTISRDNAKNTVYLQMNSLKPEDTAVYYCAADRYTVRMDYWGQGTQVTVSS,high polyreactivity
7,QVQLVESGGGLVQAGGSLRLSCAASGIISIFNVMGWYRQAPGKEMEWVASITGRGGSTFYADSVKGRFTISRDNAKNTVDLLMNSMKPEATAVYFCATDNGYTYPVTGLYDYWGQGTQVTVSS,low polyreactivity
8,QVQLVESGGGLVQAGGSLRLSCAASGIISSTNAMGWYRQEPGKERELVAAISGRGSGTYYADSVKGRFTISRDNAKNTVYLQMNRLKPEDTAVYYCAALSNVFQWWFKTNKSRYDYWGQGTQVTVSS,high polyreactivity
9,QVQLVESGGGLVQAGGSLRLSCAASGIISSVYAMGWYRQAPGKERELVAAITGSGGNTYYADSVKGRFTISRDNAKNTVSLQMNSLKPEDTAVYYCATDDAIISYELVYQYDHWGQGTQVTVSS,low polyreactivity
10,QVQLVESGGGLVQAGGSLRLSCAASGIISYQKAMGWYRQAPGKERELVAGITYSGGSTYYADSVKGRFTISRDNAKNSVYLQMNSLKPEDTAVYYCAARVVYWTWAGLSKMDYWGQGTQVTVSS,high polyreactivity
11,QVQLVESGGGLVQAGGSLRLSCAASGIIYGIYAMGWYRQAPGKERELVAAITSRGGTTYYADSVKGRFTISRDNAKNTVYLQMNSLKPEDTAVYYCAARGRRYSHRVGYDWGQGTQVTVSS,high polyreactivity
12,QVQLVESGGGLVQAGGSLRLSCAASGIIYKSYAMGWYRQAPGKERELVAVIRWSGGSTYYSDSVKGRFTISRDNAKNTVYLQMNSLKPEDTAVYYCAATPRKSYSIRRYDYWGQGTQVTVSS,high polyreactivity
13,QVQLVESGGGLVQAGGSLRLSCAASGIIYKYAMGWYRQAPGKERELVATITWSDGSTYYADSVKGRFTISRDNAKNTVYLQMNSLKPDDTAVYYCAADDYYGYDYWGQGTQVTVSS,low polyreactivity
14,QVQLVESGGGLVQAGGSLRLSCAASGIIYYENTMGWYRQAPGKERELVAPINSGGSTYYADCVKGRFTISRDNAKNTVYLQMNSLKPEDTAVYYCAADDYSGLYYSSTYRYEYWGQGTQVTVSS,low polyreactivity
15,QVQLVESGGGLVQAGGSLRLSCAASGINFDDYVMGWYRQAPGKERELFAAISSSGGSTYYADSVKGRFTISRDNAKNTVYLQMNSLKPEDTAVYYCAADYGSYGVVRAVSIEYEYWGQGTKVTVSS,low polyreactivity
16,QVQLVESGGGLVQAGGSLRLSCAASGINFPRYMGWYRQAPGKERELVAAIRWSSDDTNYADSVKGRFTISRDNAKNTVYLQMNSLKPEDTAVYYCAADSYYDRTIQFEFSASTYDYWGQGTQVTVSS,low polyreactivity
17,QVQLVESGGGLVQAGGSLRLSCAASGINFRLNAMGWYRQAPGKERELVAAIRRRGGSTYYADSVKGRFTISRDNAKNTVYLQMNSLIPEDTAVYYCAKDPHGSDFGYWGQGNQVTVSS,low polyreactivity
18,QVQLVESGGGLVQAGGSLRLSCAASGINFRTYAMGWYRQAPGKERELVAAINSDGSTYYADSVKGRFTISRDNAKITVYLQMNSLKPEDNAVYYCAAVVWRIHAYYWAVDGWYYYWGQGTQVTVSS,high polyreactivity
19,QVQLVESGGGLVQAGGSLRLSCAASGINFSFYTMRWYRQAPGIERELVAAISSGGDTYYADSVNGRFTNSRDNAKNTVYLQMNSLKPEVTAVYYCAVDQYDRTTAFCYWYPYYYWGQGTQVTVSS,low polyreactivity
20,QVQLVESGGGLVQAGGSLRLSCAASGINFVLYAMGWYRQAPGKERELVAAITSGGRTYYADSVNGRFTISRDNAKNTVYLQMISLKPEDTAVYYCADNYFTQRLWFDYWGQGTQVSVSS,high polyreactivity
21,QVQLVESGGGLVQAGGSLRLSCAASGINFWYYAMVGYRQATGKERELDAAITGGSTYYADSVKGRFTISRDNAKNTVYLQMISLKQEDTAVYYCNADSVFEYWDYDYWGQGTQVTVSS,low polyreactivity
22,QVQLVESGGGLVQAGGSLRLSCAASGINFYYYTMGWYRQAPGKERELVAGITRGGRTYYADSVKGRFTISRDNAKNTVYLQMNSLKPEDTAVYYCNADPWWRFDYWGQGTQVTVSS,low polyreactivity

row,Sequence,polyreactivity (PSR sort gate)
1,QVQLVESGGGLVQAGGSLRLSCAASGISFRRYTMGSYRQAPGKERELVDTISLSDGNTYYADSVKGRFTISRDNAKNTVYLQMNSMKPEDTAVYYCNARHTWHQSYDYWGQGTQVSVSS,low polyreactivity
2,QVQLVESGGGLVQAGGSLRLSCAASGISFSYYAMGLCRQAPGKERELVAAISISGGRTYYADSVKGRFTISRDNAKNTVYLQMNSLKPEDTAVYYCASCVGSRIKQVGNDYWGQVTQVTVSS,high polyreactivity
3,QVQLVESGGGLVQAGGSLRLSCAASGITFADNAMGWYRPAPGKERELVAAITSGGSTYYADSVKGRFTISRDNAKNTVYLQMNSLKPEDTAVYYCNVRVRRLFYWARLVAYDYWGQGTQVTVSS,high polyreactivity
4,QVQLVESGGGLVQAGGSLRLSCAASGITFADNAMGWYRQAPGKERELVAANSWSGDRTFYADSVKGRFTISRDNAKNTVYLQMNSLKPEDTAVYYCARDSLQVFYPYASDDYWGQGTQVTVSS,low polyreactivity
5,QVQLVESGGGLVQAGGSLRLSCAASGITFAGYAMGWYRQAPGKERELVAAISRGGSTYYADSVKGRFTISRDNAKNTVYLQMNSLKPEDTAVYYCNTDDQQGYFTYTGWNYNYWGQGTQVTVSS,high polyreactivity
6,QVQLVESGGGLVQAGGSLRLSCAASGITFARYAMGWYRQAPGKERELVAAISRNAGRTYYADSVKGRFTISRDNAKNTVYLQMNSLKPEDTAVYYCAAVTKSSVPGSRYDYWGQGTQVTVSS,high polyreactivity
7,QVQLVESGGGLVQAGGSLRLSCAASGITFARYAMGWYRQAPGKERELVAAISSRGGRTYYADSVKGRFTISRDNAKNTVYLQMNSLKPEDTAVYYCAADYVWSTISGYWGQGTQVTVSS,high polyreactivity
8,QVQLVESGGGLVQAGGSLRLSCAASGITFATNTMGWYRQAPGKERELVASINYRGGSTYYADSVKGRFTISRDNAKNTVYLQMNSLKPEDTAVYYCNADIYLEYDYWGQGTQVTVSS,low polyreactivity
9,QVQLVESGGGLVQAGGSLRLSCAASGITFAVYTMGWYSQAPGKERELVAAITGSGGRTYYADSVKGRFTISRDNAKNTVYLQMNSLKPEDTAVYYCNAVQRSSRQTFEYWGQGTQVTVSS,low polyreactivity
10,QVQLVESGGGLVQAGGSLRLSCAASGITFAYYGMGWYRQAPGKERELVAAISWTGSSTYYADSVKGRFTISRDNAQNTVYLQMNSLKPEDTAVYYCAARQRYRYDYWGQGTQVTVSS,high polyreactivity
11,QVQLVESGGGLVQAGGSLRLSCAASGITFDDNAMAWYRQAPGKERELVATISDGGRTYYADSVKGRFTISRDNAKNTVFLQMNILKPEDTGVYYCAAGYPYYHVYGYGYWGQGTLVTVSS,low polyreactivity
12,QVQLVESGGGLVQAGGSLRLSCAASGITFDEYAMGWYRQAPGKERELVAAISWRGAITYYADSVKGRFTISRDNAKNTVYLQMNSLKPEDTAGYYCNADRAYTYVRYYITQDFGYWGQGTQVTVSS,high polyreactivity
13,QVQLVESGGGLVQAGGSLRLSCAASGITFDEYAMGWYRQAPGKERELVASISAGSTYYADSVKGRFTISRDNAKNTVYLQMNSLKPEDTAVYYCAVVVDYDAYRYWGYDYWGQGTQVTVSS,high polyreactivity
14,QVQLVESGGGLVQAGGSLRLSCAASGITFDGYAMGWYRQAPGKERELVAAISISGASTYYADSVKGRFTISRDNAKNTVYLQKNSLKPEDTAVYYCAASSWINQYPGDYWGQGTQVTVSS,high polyreactivity
15,QVQLVESGGGLVQAGGSLRLSCAASGITFDGYAMGWYRQAPGKERELVAAISNTGDTTYYADSVKGRFTISRDNAKNTVYLQMNSLKPEDTAVYYCAGQRYYSYEYWGQGTQVTVSS,high polyreactivity
16,QVQLVESGGGLVQAGGSLRLSCAASGITFDINAMGWYRQAPGKERELVAAISKSGRTYYADSVKGRFTISRDNAKNTVYLQMNSLKPEDTAVYYCNKVPYPSNDYWGQGTQVTVSS,high polyreactivity
17,QVQLVESGGGLVQAGGSLRLSCAASGITFDKNTMGWYRQAPGKERELVAAISARGGSTYYADSVKGRFTISRDNAKNTVYLQMNSLKPEDTAVYSCAADYSARYGYWGQGTQVNVSS,high polyreactivity
18,QVQLVESGGGLVQAGGSLRLSCAASGITFDKYAMGWNRQAPGKERELDAAISGSDGSTYYADSVKGRFTISRDNAKNTVYLQMNILKPEDTAVYYCAAESEYAGTYEYDYWGQGTQVTVSS,low polyreactivity
19,QVQLVESGGGLVQAGGSLRLSCAASGITFDQNAMGWYRQAPGKEREFVAAISVSGGRTYYADSVKGRFTISRDNAKNTVYLQMNSLKPEDTAVYYCAAYGGTRYYYSYYYWGQGTQVTVSS,high polyreactivity
20,QVQLVESGGGLVQAGGSLRLSCAASGITFDRNVMGWYRQAPGTERELVAAISKSGGRTYYADSVKGRFRISRDNAKNTDYLQLNSLKPEDTAVYYCNADVYSRKSLHQYEYWGQGTQVTVSS,high polyreactivity
21,QVQLVESGGGLVQAGGSLRLSCAASGITFDWNAMGWYRQAPGKEREFVASISRGSGGTYYADSVKGRFTISRDNAKNTVYLQMNSLKPEDTAVYYCAAAVGNTDREYDYWGQGTQVTVSS,low polyreactivity
